Read-outs that look alike come from different tables or passages of the source.

Consider 14 molecules from patent US20200392228A1 (PANDION OPERATIONS, published 2020).

The target of experiment [1] is T1, human MAdCAM protein (human, UniProt Q13477 19-317).
T1 construct: used for Octet, SPR, ELISA and plate capture; construct not described; also called recombinant human MAdCAM; soluble monomeric human MAdCAM
T1 sequence (looked up): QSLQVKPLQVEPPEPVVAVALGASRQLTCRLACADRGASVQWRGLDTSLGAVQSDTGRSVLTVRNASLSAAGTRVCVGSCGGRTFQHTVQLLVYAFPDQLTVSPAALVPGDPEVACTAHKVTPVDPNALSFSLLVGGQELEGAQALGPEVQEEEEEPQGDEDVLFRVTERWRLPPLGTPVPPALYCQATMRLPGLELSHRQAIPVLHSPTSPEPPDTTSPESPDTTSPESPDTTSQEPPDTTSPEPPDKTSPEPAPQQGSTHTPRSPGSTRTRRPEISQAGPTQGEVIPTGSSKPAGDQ
Put plainly: Octet. (In BLI a coated tip is dipped into the sample, and binding shifts an interference pattern.)

Experiment [2] has as its target T2, mouse MAdCAM expressed on cells (mouse, UniProt Q61826 22-405).
T2 construct: whole, on cells
T2 sequence (looked up): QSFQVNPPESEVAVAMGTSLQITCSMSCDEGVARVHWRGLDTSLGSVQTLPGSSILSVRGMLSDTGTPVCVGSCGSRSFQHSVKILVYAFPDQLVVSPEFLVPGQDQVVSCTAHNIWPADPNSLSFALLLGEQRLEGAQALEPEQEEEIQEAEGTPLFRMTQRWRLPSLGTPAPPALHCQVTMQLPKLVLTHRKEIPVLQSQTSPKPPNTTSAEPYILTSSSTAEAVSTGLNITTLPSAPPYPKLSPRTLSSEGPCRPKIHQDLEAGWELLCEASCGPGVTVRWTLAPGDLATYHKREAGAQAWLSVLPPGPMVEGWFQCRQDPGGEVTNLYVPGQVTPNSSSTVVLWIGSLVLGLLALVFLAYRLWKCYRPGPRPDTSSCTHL
Put plainly: cell binding.

The target in experiment [3] is T3, human MAdCAM expressed on cells (human, UniProt Q13477 19-382).
T3 construct: whole, on cells; also called MADCAM1
T3 sequence (looked up): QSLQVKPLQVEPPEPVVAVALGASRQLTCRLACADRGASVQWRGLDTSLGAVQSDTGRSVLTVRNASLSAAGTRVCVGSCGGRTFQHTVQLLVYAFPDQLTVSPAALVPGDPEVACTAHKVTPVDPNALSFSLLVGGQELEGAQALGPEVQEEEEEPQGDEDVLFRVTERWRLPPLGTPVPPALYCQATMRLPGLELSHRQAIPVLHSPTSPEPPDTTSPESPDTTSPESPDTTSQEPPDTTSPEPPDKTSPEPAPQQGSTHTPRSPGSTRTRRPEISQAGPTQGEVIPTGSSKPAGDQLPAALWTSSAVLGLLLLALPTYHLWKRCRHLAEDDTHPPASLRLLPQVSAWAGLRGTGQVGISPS
Put plainly: cell binding.

The next experiment deals with T4, mouse MAdCAM protein (mouse, UniProt Q61826 22-365, limits assumed).
T4 construct: also called recombinant mouse MAdCAM-1; mMAdCAM-1
T4 sequence (looked up): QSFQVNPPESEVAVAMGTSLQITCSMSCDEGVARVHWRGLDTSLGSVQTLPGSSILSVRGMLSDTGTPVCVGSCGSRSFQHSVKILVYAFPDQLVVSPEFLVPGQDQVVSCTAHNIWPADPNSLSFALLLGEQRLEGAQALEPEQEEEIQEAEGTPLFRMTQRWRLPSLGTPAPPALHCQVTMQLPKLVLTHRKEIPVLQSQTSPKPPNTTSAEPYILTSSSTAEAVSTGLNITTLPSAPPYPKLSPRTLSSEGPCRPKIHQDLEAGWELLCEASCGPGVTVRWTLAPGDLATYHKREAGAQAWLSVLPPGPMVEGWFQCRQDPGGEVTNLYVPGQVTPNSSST
Put plainly: Octet.

Experiment [4] deals with T2, mouse MAdCAM expressed on cells. Kind of experiment: cell binding. The source holds these as a separate data set.
Experiment [5] concerns the target T3, human MAdCAM expressed on cells. Put plainly: cell binding. This is another data set of the same source.
For experiment [6], the target named is T1, human MAdCAM protein. Put plainly: Octet. This is another data set of the same source.

B1: MAdCAM antibody Clone ID 78 of Table 7 (IgG) (antibody, V domains shown)
VH: QVQLVQSGAEVKKPGSSVKVSCKASGGTFSSYAISWVRQAPGQGLEWMGWMEPHTGNTRYAQKFQGRVTITADESTSTAYMELSSLRSEDTAVYYCAKGGFSWFDPWGQGTLVTVSS
VL: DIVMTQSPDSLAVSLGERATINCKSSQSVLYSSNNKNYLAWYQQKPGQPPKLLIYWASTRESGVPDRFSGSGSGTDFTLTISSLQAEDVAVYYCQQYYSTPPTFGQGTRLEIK
notes: IgG format
For B1, the binding result (with human MAdCAM protein [1]; in experiment [2]; in experiment [3]) was “binds” in each case.

B2: MAdCAM antibody Clone ID 28 of Table 7 (IgG) (antibody, V domains shown)
VH: EVQLLESGGGLVQPGGSLRLSCAASGFTFSSYAMSWVRQAPGKGLEWVSYISSSSTYTNYADSVKGRFTISRDNSKNTLYLQMNSLRAEDTAVYYCARANSSSWYDWYFDLWGQGTLVTVSS
VL: not shown
notes: IgG format
As to B2, the binding result (in the experiment with mouse MAdCAM protein; in experiment [2]) was “no binding” throughout.

B3: MAdCAM antibody Clone ID 29 of Table 7 (IgG) (antibody, V domains shown)
VH: EVQLLESGGGLVQPGGSLRLSCAASGFTFSSYQMSWVRQAPGKGLEWVSYISSSSTYTNYADSVKGRFTISRDNSKNTLYLQMNSLRAEDTAVYYCARANSSSWYDWYFDLWGQGTLVTVSS
VL: not shown
notes: IgG format
For the molecule B3, the binding result (in the experiment with mouse MAdCAM protein; in experiment [2]) was “no binding” throughout.

B4: MAdCAM antibody Clone ID 65 of Table 6 (scFv) (scFv)
scFv: QVQLVQSGAEVKKPGASVKVSCKASGYTFTRHWIHWVRQAPGQGLEWMGWINVKTGGAGYAQKFQGRVTMTRDTSTSTVYMELSSLRSEDTAVYYCARESSGWYGTDVWGQGTTVTVSSGGGGSGGGGSGGGGSGGGGSDIQMTQSPSSLSASVGDRATITCRASQSISNYLAWYQQKPGKAPKLLIYAASSLQSGVPSRFSGSGSGTDFTLTISSLQPEDFATYYCQQSNSFPLTFGGGTKVEIK
Turning to B4, the binding result (in experiment [4]; in experiment [5]; in the experiment with human MAdCAM protein [6]) was “binds” each time.

B5: MAdCAM antibody Clone ID 24 of Table 7 (IgG) (antibody, V domains shown)
VH: EVQLVESGGGLVKPGGSLRLSCAASGFTFSSYWMSWVRQAPGKGLEWVSRISSDGRITTYAAPVKGRFTISRDDSKNTLYLQMNSLKTEDTAVYYCARGTSYCTGGVCDIDYWGQGTLVTVSS
VL: DIQMTQSPSSLSASVGDRVTITCRASQSIGRNLNWYQQKPGKAPKLLIYSASNLQSGVPSRFSGSGSGTDFTLTISSLQPEDFATYYCQQSYSIPLTFGPGTKVDIK
notes: IgG format
With B5, the figures for the binding result (in the experiment with mouse MAdCAM protein; in experiment [2]; in experiment [3]) were “no binding”, “no binding” and “binds”, respectively.

B6: MAdCAM antibody Clone ID 30 of Table 7 (IgG) (antibody, V domains shown)
VH: EVQLLESGGGLVQPGGSLRLSCAASGFTFSSYAMHWVRQAPGKGLEWVSGISGSGGSAYYADSVKGRFTISRDNSKNTLYLQMNSLRAEDTAVYYCATSQAPVDYYYYGMDVWGQGTTVTVSS
VL: DIQMTQSPSSLSASVGDRVTITCRASQSISSWLAWYQQKPGKAPKLLIYAASNLQRGVPSRFSGSGSGTDFTLTISSLQPEDFATYYCQQSYSIPITFGQGTKVEIK
notes: IgG format
Turning to B6, the binding result (in the experiment with human MAdCAM protein [1]; in experiment [2]; in experiment [3]) was “binds” throughout.

B7: MAdCAM antibody Clone ID 61 of Table 6 (scFv) (scFv)
scFv: EVQLLESGGGLVQPGGSLRLSCAASEFTFSNAWMSWVRQAPGKGLEWVASISSTSAYIDYADSVKGRFTISRDNSKNTLYLQMNSLRAEDTAVYYCAREVVGATTFDYWGQGTLVTVSSGGGGSGGGGSGGGGSGGGGSDIQMTQSPSSLSASVGDRVTITCRASQSISTWLAWYQQKPGKAPKLLIYAASSLQSGVPSRFSGSGSGTDFTLTISSLQPEDFATYYCQQANAFPPTFGQGTRLEIK
For B7, the binding result (in experiment [4]; in experiment [5]; with human MAdCAM protein [6]) was “binds” in each case.

B8: MAdCAM antibody Clone ID 64 of Table 6 (scFv) (scFv)
scFv: EVQLLESGGGLVKPGGSLRLSCAASGFAFSSHWMHWVRQAPGKGLEWVAGTSGSGESRDYADFVKGRFTISRDDSKNTLYLQMNSLKTEDTAVYYCARETYYYYYMDVWGKGTTVTVSSGGGGSGGGGSGGGGSGGGGSDIQMTQSPSSLSASVGDRVTITCRASQGISNYLAWYQQKPGKAPKLLIYDAANLEGGVPSRFSGSGSGTDFTLTISSLQPEDFATYYCQQSDIFPPTFGQGTKVEIK
As to B8, the binding result (in experiment [4]; in experiment [5]; with human MAdCAM protein [6]) was “binds” each time.

B9: MAdCAM antibody Clone ID 14 of Table 7 (IgG) (antibody, V domains shown)
VH: QVQLVQSGAEVKKPGSSVKVSCKASGYTFTNYYMHWVRQAPGQGLEWMGGIIPIVDGVKYAQKFQGRVTITADESTSTAYMELSSLRSEDTAVYYCAKGQFTGNYYYGMDYWGQGTLVTVSS
VL: DIQMTQSPSSLSASVGDRVTITCQANQDISNYLNWYQQKPGKAPKLLIYRASKLEAGVPSRFSGSGSGTDFTLTISSLQPEDFATYYCQQSSEIPYSFGQGTKVEIK
notes: IgG format
Regarding B9, the binding result (with mouse MAdCAM protein; in experiment [2]) was “no binding” each time.

B10: MAdCAM antibody Clone ID 66 of Table 6 (scFv) (scFv)
scFv: EVQLLESGGGLVQPGGSLRLSCAASGFTFSSYWMHWVRQAPGKGLEWVAAISYDGKYKDYEDSVKGRFTISRDNSKNTLYLQMNSLRAEDTAVYYCARENKQWLASFDYWGQGTLVTVSSGGGGSGGGGSGGGGSGGGGSDIQMTQSPSSLSASVGDRVTITCQASQDISNFVNWYQQKPGKAPKLLIYAANLRSGVPSRFSGSGSGTDFTLTISSLQPEDFATYYCQQANSFPVTFGPGTKVDIK
Turning to B10, the binding result (in experiment [4]; in experiment [5]; in the experiment with human MAdCAM protein [6]) was “binds” throughout.

B11: MAdCAM antibody Clone ID 65 of Table 7 (IgG) (antibody, V domains shown)
VH: QVQLVQSGAEVKKPGASVKVSCKASGYTFTSYDINWVRQAPGQGLEWMGWMNPNSGNTGYAQKFQGRVTMTRDTSTSTVYMELSSLRSEDTAVYYCAKDSDYSNLLWDYWGQGTLVTVSS
VL: DIQMTQSPSSLSASVGDRVTITCRASQDITNDLGWYQQKPGKAPKLLIYQASSLESGVPSRFSGSGSGTDFTLTISSLQPEDFATYYCQQSYTIPLTFGQGTKVEIK
notes: IgG format
Regarding B11, the binding result (with mouse MAdCAM protein; in experiment [2]) was “no binding” throughout.

B12: MAdCAM antibody Clone ID 74 of Table 7 (IgG) (antibody, V domains shown)
VH: QVQLVQSGAEVKKPGASVKVSCKASGYTFTGYYMHWVRQAPGQGLEWMGIINPSGGNTKYAQKFQGRVTMTRDTSTSTVYMELSSLRSEDTAVYYCTTADYYYYMDVWGKGTTVTVSS
VL: DIQMTQSPSSLSASVGDRVTITCRASQGISNYLAWYQQKPGKAPKLLIYAASSLQSGVPSRFSGSGSGTDFTLTISSLQPEDFATYYCQQYYSNADFGQGTKVEIK
notes: IgG format
On to B12, for which the binding result (with mouse MAdCAM protein; in experiment [2]) was “no binding” each time.

B13: MAdCAM antibody Clone ID 36 of Table 7 (IgG) (antibody, V domains shown)
VH: EVQLLESGGGLVQPGGSLRLSCAASGFTFDDYALHWVRQAPGKGLEWVSAISGDGRSTTYADSVKGRFTISRDNSKNTLYLQMNSLRAEDTAVYYCARDGTVNGATGWFDPWGQGTLVTVSS
VL: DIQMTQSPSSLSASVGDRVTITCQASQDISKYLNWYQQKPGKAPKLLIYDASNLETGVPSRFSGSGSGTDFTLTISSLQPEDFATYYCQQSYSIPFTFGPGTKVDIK
notes: IgG format
For B13, the binding result (in the experiment with human MAdCAM protein [1]; in experiment [2]; in experiment [3]) was “binds” in each case.

B14: MAdCAM antibody Clone ID 58 of Table 7 (IgG) (antibody, V domains shown)
VH: EVQLLESGGGLVQPGGSLRLSCAASGFSVSSNYMSWVRQAPGKGLEWVAGISYDGSSKPYADSVKGRFTISRDNSKNTLYLQMNSLRAEDTAVYYCARSRGIAARPLQHWGQGTLVTVSS
VL: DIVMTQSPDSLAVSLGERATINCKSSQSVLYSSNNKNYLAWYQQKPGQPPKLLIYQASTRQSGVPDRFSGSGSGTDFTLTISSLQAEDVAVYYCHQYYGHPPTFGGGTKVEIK
notes: IgG format
For B14, the binding result with human MAdCAM protein [1] was “binds”; in experiment [2], “no binding”; in experiment [3], “binds”.
